Measurements taken from patent publication US20190031759A1 (TECHNION RESEARCH AND DEVELOPMENT FOUNDATION, published 2019).

Molecular target: recombinant single-chain HLA-A2-WT1Db126 complex (soluble, biotinylated scMHC-peptide complex) (human, site-specific biotinylation at the BirA recognition sequence at the carboxyl-terminus)
Assay: SPR (ProteOn XPR36), soluble HLA-A2/WT1Db126 complexes on chip-immobilized Fabs coupled through an anti-human Fab

Binder | Kd [nM]
F2 anti-HLA-A2/WT1Db126 TCR-like recombinant Fab antibody (Fab, V domains shown, Soluble human Fab from a naive phage Fab library, expressed in E. coli and purified on a TALON column; also called F2 Fab; F2 TCRL) VH: QVQLVQSGGGLVKPGGSLRLSCAASGFTFSSYSMNWVRQAPGKGLEWVSSISSSSSYIYYADSVKGRFTISRDNAKNSLYLQMNSLRAEDTAVYYCARGDYYGLTFDPWGQGTLVTV VL: LNFMLTQPHSVSESPGKTVTISCTRSSGSIASNYVQWYQQRPGSSPTTVIYEDNQRPSGVPDRFSGSIDSSSNSASLTISGLKTEDEADYYCQSYDSSNQNWVFGGGTKLTVLS | 400
F3 anti-HLA-A2/WT1Db126 TCR-like recombinant Fab antibody (Fab, V domains shown, Soluble human Fab from a naive phage Fab library; also called F3 Fab; F3 TCRL) VH: EVQLVQSGAEVKKTGSSVKVSCKASGYTFTYRYLHWARQAPGQALEWMGWITPFNGNTNYAQKFQDRVTITRDRSMSTAYMELSSLRSEDTAMYYCASSAYDAFDIWGQGTMVTV VL: LSSELTQDPAVSVALGQTVKITCQGDSLRIHYASWYQQKPGQAPVLVIYGKDNRPSGIPDRFSGSSSGTSASLTITGARAEDEADYYCNSRDNSGDHVLFGGGTKLTVV | 30
